# PMC12205653 (The Journal of Biological Chemistry, 2025)
# What was measured:
# [1] = target: endogenous CAPN2 (human (endogenous in MDA-MB-231)) (UniProt P17655)
# [2] = target: T1, LgBiT-CAPNS1 (mammalian expression construct) (human, UniProt P04632 60-268); assay: split reporter (BiFC, NanoBiT); LgBiT and SmBiT fusions coexpressed pairwise in transfected HEK293T cells; luciferase signal of cell lysates as fold change over a LgBiT-alone control; settings: partners not purified
# T1 construct: CAPNS1, human, PEF(S) domain, residues 60-268, in pBiT1.1-N (TK/LgBiT); source: HEK293T, transfected, in lysate; not shown: LgBiT, N-terminal, kept
# T1 sequence (looked up): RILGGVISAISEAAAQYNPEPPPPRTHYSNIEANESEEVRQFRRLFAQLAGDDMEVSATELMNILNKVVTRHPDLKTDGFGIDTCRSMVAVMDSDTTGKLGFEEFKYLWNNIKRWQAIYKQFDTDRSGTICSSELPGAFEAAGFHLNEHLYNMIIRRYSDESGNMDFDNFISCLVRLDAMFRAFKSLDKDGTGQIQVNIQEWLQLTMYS
# His10-LgBiT-CAPNS1 [3] = target: T2, His10-LgBiT-CAPNS1 (human, UniProt P04632 60-268); assay: split reporter (BiFC, NanoBiT); crude bacterial lysates with approximately equimolar biosensor components; 5 mM Mg2+, no Ca2+; fold over His10-LgBiT-CAPNS1 alone; settings: partners not purified
# T2 construct: CAPNS1, calpain small regulatory subunit, human, penta-EF-hand domain PEF(S), residues 60-268; Cloned in pET16b; also called CAPNS1 PEF(S) biosensor component; source: E. coli BL21 RIPL; not shown: His10, N-terminal, kept; LgBiT, N-terminal, kept
# T2 sequence (looked up): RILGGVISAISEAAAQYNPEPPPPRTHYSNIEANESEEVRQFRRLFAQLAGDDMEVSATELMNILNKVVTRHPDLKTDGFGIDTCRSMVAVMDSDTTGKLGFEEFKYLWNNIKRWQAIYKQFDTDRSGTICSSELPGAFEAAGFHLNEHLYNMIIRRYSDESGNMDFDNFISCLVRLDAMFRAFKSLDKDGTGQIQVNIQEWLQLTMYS
# His10-LgBiT-CAPNS1 [4] = target: T2, His10-LgBiT-CAPNS1; assay: split reporter (BiFC, NanoBiT); fixed 100 nM LgBiT-CAPNS1, increasing SmBiT-CAPN1/2, 5 mM Mg2+ in place of Ca2+; estimated KD from the inflection of the plot assuming first-order kinetics; settings: both partners purified
# His10-LgBiT-CAPNS1 [5] = target: T2, His10-LgBiT-CAPNS1; assay: split reporter (BiFC, NanoBiT); fixed 100 nM LgBiT-CAPNS1, increasing SmBiT component, 5 mM Ca2+; estimated KD from the inflection of the plot assuming first-order kinetics; for CAPNS1 with CAPNS1: dimer to monomers; settings: both partners purified
# Sequence of endogenous CAPN2 (human (endogenous in MDA-MB-231)) (P17655 20-700): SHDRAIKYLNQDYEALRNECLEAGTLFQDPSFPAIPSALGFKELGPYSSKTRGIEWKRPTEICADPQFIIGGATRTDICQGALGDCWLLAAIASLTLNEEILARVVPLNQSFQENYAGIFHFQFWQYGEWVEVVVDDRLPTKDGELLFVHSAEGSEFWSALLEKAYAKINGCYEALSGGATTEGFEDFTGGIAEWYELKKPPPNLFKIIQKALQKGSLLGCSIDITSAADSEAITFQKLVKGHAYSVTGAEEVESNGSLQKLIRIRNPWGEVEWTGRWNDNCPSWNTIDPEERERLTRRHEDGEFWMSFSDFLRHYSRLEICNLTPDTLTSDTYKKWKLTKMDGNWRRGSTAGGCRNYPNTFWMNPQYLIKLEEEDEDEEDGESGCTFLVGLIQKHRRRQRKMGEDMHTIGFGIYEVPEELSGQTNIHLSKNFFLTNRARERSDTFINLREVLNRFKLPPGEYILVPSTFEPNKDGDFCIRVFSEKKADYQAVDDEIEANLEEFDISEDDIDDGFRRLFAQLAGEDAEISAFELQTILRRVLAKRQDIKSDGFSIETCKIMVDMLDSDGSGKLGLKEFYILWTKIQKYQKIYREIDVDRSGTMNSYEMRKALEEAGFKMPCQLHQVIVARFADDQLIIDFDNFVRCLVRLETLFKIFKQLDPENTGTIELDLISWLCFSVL
molecule,measurement,setting,value
recombinant CAPNS1 Q263R (pMSCV_CAPNS1) (from UniProt P04632 1-268) (natural protein),"calpain-2 casein proteolytic activity (zymography of cell lysates), standardized to CAPN2 expression, against WT CAPNS1",[1],51 % of the WT
"SmBiT-CAPN1 (mammalian expression construct) (domain or fragment, human, UniProt P07384 538-714, looked up, CAPN1, human, PEF(L) domain, residues 538-714, in pBiT2.1-N (TK/SmBiT); source: HEK293T, transfected, in lysate; not shown: SmBiT, N-terminal, kept) LSEEEIDENFKALFRQLAGEDMEISVKELRTILNRIISKHKDLRTKGFSLESCRSMVNLMDRDGNGKLGLVEFNILWNRIRNYLSIFRKFDLDKSGSMSAYEMRMAIESAGFKLNKKLYELIITRYSEPDLAVDFDNFVCCLVRLETMFRFFKTLDTDLDGVVTFDLFKWLQLTMFA",fold increase of bioluminescence over LgBiT-CAPNS1 alone,[2],~400 fold
"His6-MBP-SmBiT-CAPN1 (domain or fragment, human, UniProt P07384 538-714, looked up, CAPN1, calpain-1 catalytic subunit, human, penta-EF-hand domain PEF(L), residues 538-714; Cloned in pHT29 (modified pET16b); also called CAPN1 PEF(L) biosensor component; source: E. coli BL21 RIPL; not shown: His6, N-terminal, kept; MBP, N-terminal, kept; SmBiT, N-terminal, kept) LSEEEIDENFKALFRQLAGEDMEISVKELRTILNRIISKHKDLRTKGFSLESCRSMVNLMDRDGNGKLGLVEFNILWNRIRNYLSIFRKFDLDKSGSMSAYEMRMAIESAGFKLNKKLYELIITRYSEPDLAVDFDNFVCCLVRLETMFRFFKTLDTDLDGVVTFDLFKWLQLTMFA",fold signal over LgBiT-CAPNS1 alone,His10-LgBiT-CAPNS1 [3],47 fold
same,Kd,His10-LgBiT-CAPNS1 [4],362 nM
same,Kd,His10-LgBiT-CAPNS1 [5],185 nM
"His6-MBP-SmBiT-CAPNS1 (domain or fragment, human, UniProt P04632 60-268, looked up, CAPNS1, calpain small regulatory subunit, human, penta-EF-hand domain PEF(S), residues 60-268; Same CAPNS1 stretch as m1 with other tags; m4 with m1 measures the PEF(S):PEF(S) homodimer of CAPNS1; not shown: His6, N-terminal, kept; MBP, N-terminal, kept; SmBiT, N-terminal, kept) RILGGVISAISEAAAQYNPEPPPPRTHYSNIEANESEEVRQFRRLFAQLAGDDMEVSATELMNILNKVVTRHPDLKTDGFGIDTCRSMVAVMDSDTTGKLGFEEFKYLWNNIKRWQAIYKQFDTDRSGTICSSELPGAFEAAGFHLNEHLYNMIIRRYSDESGNMDFDNFISCLVRLDAMFRAFKSLDKDGTGQIQVNIQEWLQLTMYS",Kd,His10-LgBiT-CAPNS1 [5],635 nM
